In US20190269666A1 (Eli Lilly, published 2019):

Legend:
[1] = target: T1, human PD-L1-Fc fusion protein (human, UniProt Q9NZQ7 19-239); test: ELISA, plate coated with human PD-L1-Fc (R&D Systems), anti-human IgG F(ab')2-HRP detection
T1 construct: treated as one molecule; also called soluble human PD-L1-Fc fusion protein; human PD-L1-Fc (R&D Systems); not shown: Fc part
Experimental: Wells are blocked for 2 hours with blocking buffer (PBS containing 5% nonfat dry milk). Wells are washed three times with PBS containing 0.1% TWEEN®-20. […] After washing, the plate is incubated with 100 μL of goat anti-human IgG F(ab′)2-HRP conjugate (Jackson Immuno Research) at room temperature for 1 hour. The plates are washed and then incubated with 100 μL of 3,3′, 5,5′-tetra-methylbenzidine. The absorbance at 450 nm is read on a microplate reader. The half maximal effective concentration (EC₅₀) is calculated using GraphPad Prism 6 software.

[2] = target: T2, biotinylated PD-L1-Fc fusion protein (Homo sapiens (Human), UniProt Q9NZQ7 19-238, limits assumed, biotinylated (sites not given)); test: blocking ELISA: antibody premixed with biotinylated PD-L1-Fc, plate coated with B7-1-Fc (1 ug/ml, R&D Systems)
T2 construct: not shown: Fc part
T2 sequence (Q9NZQ7 19-238 limits assumed): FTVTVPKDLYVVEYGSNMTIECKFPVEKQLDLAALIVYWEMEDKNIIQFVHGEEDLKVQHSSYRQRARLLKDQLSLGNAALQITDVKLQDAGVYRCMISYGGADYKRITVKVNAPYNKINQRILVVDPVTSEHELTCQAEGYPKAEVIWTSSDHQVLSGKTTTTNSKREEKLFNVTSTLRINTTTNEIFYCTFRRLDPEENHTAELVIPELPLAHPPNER

[3] = target: T3, cell surface PD-L1 on MDA-MB231 cells (human, UniProt Q9NZQ7 19-290); test: flow cytometry on MDA-MB231 cells, biotinylated antibody, streptavidin-PE detection
T3 construct: Endogenous PD-L1 of the human cell line; also called cell surface expressed human PD-L1; MDA-MB 231 cells (PD-L1-positive human breast adenocarcinoma cell line)
T3 sequence (Q9NZQ7 19-290 limits assumed): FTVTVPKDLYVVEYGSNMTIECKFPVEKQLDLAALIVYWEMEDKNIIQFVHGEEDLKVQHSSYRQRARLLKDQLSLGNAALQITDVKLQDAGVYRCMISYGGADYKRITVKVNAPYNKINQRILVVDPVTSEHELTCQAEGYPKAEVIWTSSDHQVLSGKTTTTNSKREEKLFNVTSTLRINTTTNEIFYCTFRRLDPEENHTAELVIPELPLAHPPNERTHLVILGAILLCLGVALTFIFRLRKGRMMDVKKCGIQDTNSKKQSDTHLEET
Experimental: Plate are centrifuged at 1200 rpm for 5 minutes and supernatant removed. 100 μL of antibody-biotin (serially diluted by 1:4 starting from 10 μg/ml) is added. A total of 6 serial dilutions are evaluated. After incubation at 4° C. for 30 minutes, cells are washed twice with DPBS. 100 μL of detection buffer containing 5 μL streptavidin-PE is added. After incubation at 4° C. for 30 more minutes, plate is centrifuged and washed twice with DPBS. Cells are re-suspended in 200 μL DPBS for FACS analysis.

[4] = target: T1, human PD-L1-Fc fusion protein; test: SPR (Biacore T200), antibody immobilized, PD-L1-Fc as analyte, 37 C, 1:1 model
Experimental: (§1) Immobilization of antibodies of the present invention as ligand on to sensor chip surface is performed at 25° C. […] The analysis is performed at 37° C. The contact time for each sample is 180 seconds at 30 μL/minute. The dissociation time was 240-1500 seconds. The immobilized surface is regenerated for 18 seconds with 0.95 M NaCl/25 mM NaOH at 30 μL/minute, and then stabilized for 30 seconds. Binding kinetics are analyzed using the Biacore T200 Evaluation software (Version 3.0). Data are referenced to a blank flow cell, and the data are fit to a 1:1 binding model.

[5] = target: T4, cynomolgus monkey PD-L1-Fc fusion protein (cynomolgus monkey); test: as above
T4 construct: Soluble analyte in SPR; also called Cyno PD-L1
Experimental: as §1

[6] = target: T2, biotinylated PD-L1-Fc fusion protein; test: blocking ELISA: antibody premixed with biotinylated PD-L1-Fc (100 ng/well), plate coated with PD-1-Fc (1 ug/ml)

T1 sequence (Q9NZQ7 19-239 limits assumed): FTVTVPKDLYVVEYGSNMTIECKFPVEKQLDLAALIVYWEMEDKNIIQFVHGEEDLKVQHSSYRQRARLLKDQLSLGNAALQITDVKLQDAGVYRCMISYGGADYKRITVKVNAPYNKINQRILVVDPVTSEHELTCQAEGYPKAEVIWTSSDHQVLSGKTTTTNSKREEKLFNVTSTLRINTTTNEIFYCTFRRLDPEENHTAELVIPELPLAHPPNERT

EC50 [1]: 0.11 nM
IC50 [2]: 2.4 nM
EC50 [3]: 0.14 nM
Kd [4]: 0.082 nM
koff [4]: 0.000114 s⁻¹
kon [4]: 1.4e+06 M⁻¹ s⁻¹
Kd [5]: 0.122 nM
koff [5]: 0.000184 s⁻¹
kon [5]: 1.51e+06 M⁻¹ s⁻¹
IC50 [6]: 0.95 nM
B1: LY3300054 (antibody, human IgG1, lambda, V domains shown)
VH: QVQLVQSGAEVKKPGSSVKVSCKASGGTFSSYAISWVRQAPGQGLEWMGGIIPIFGTANYAQKFQGRVTITADKSTSTAYMELSSLRSEDTAVYYCARSPDYSPYYYYGMDVWGQGTTVTVSS
VL: QSVLTQPPSASGTPGQRVTISCSGSSSNIGSNTVNWYQQLPGTAPKLLIYGNSNRPSGVPDRFSGSKSGTSASLAISGLQSEDEADYYCQSYDSSLSGSVFGGGIKLTVLG
notes: Biotinylated antibody was used in the flow cytometry assay; also called anti-PD-L1 antibody
